Assay [1] addresses αMβ2 integrin (Mac-1) (UniProt P11215 17-1152; P05107 23-769). The experiment in a line: phage display biopanning on coated αMβ2 integrin. The method, then: The αMβ₂ integrin was purified by antibody affinity chromatography from buffy coats obtained from Finnish Red Cross Blood Transfusion Service as described previously (Li et al., 1995). Integrin diluted in Tris-buffered saline (TBS)/1 mM MnCl₂ was coated onto microtiter wells overnight at 4° C. using […] per well in the first biopanning and 100, 10 and 1 ng in subsequent pannings. The wells were blocked with 5% BSA in TBS for 1 h at 22° C. and then washed five times with TBS. Biopanning was performed using CX₇C and CX₉GC phage peptide libraries essentially as described (Koivunen et al., 1994). The construction of libraries was modified so that the single-stranded DNA encoding degenerate sequences was converted into a double-stranded form using 5 cycles of PCR with only the reverse primer and then 11 cycles with both the reverse and forward primer. A total of 6 μg of the double-stranded oligonucleotide was purified using QIAGEN PCR purification kit and ligated with 42 μg of the Fuse5 phage vector. The number of recombinants in the libraries was more than 10⁹. Phage binding, elution and subsequent amplification in E. coli were repeated five times, and after each panning bacterial colonies were picked up and stored in a 10 μl volume of TBS in microtiter wells at −20° C. For direct colony sequencing, […] aliquots of the thawed samples were subjected to PCR with 10 pmol each of the forward primer 5′ […] 3′ and the reverse primer 5′[…] 3′. The PCR conditions were 92° C. for 30 s, 60° C. for 30 s, and 72° C. for 60 s, and the cycle number was 35. One μl aliquot of the PCR reaction was taken for sequencing using 15 pmol of either one of the primers and analyzed on an ABI 310 apparatus (PE Applied Biosystems, Foster City, Calif.).
After the fifh round of selection, the CX₇C library gave a 600-fold enrichment and CX₉GC a 1000-fold enrichment of phage bound to the integrin in comparison to background. […] Four of them contained the LLG tripeptide motif.

Assay [2] addresses T1, αLβ2 integrin on Jurkat cells (UniProt P20701 26-1170; P05107 23-769, limits assumed).
T1 construct: whole, on cells
The experiment in a line: inhibition of αLβ2-mediated Jurkat cell adhesion to ICAM-1-Fc (coated directly or captured via protein A), Crystal Violet staining.

Bridge positions count the residues as written; N and C are the ends. Ends that are not written are not given here.

For CWKLLGSEEEC [phage displaying CWKLLGSEEEC], the binding result in assay [1] is “binds”.

B1: C(1-8;3-9) peptide (peptide)
peptide: CPCFLLGCC
modifications: disulfide 1-8, 3-9
notes: also called LLG-C4 peptide; LLG-C4 nonapeptide
In general, IC50 refers to the concentration at which inhibition is half-maximal. The low end stands for higher potency, the high end for lower potency. The molecule B1 gave a half-maximal inhibitory concentration (IC50) in assay [2] of about 80 µM.

Turning to CPPDLFWYC [phage displaying CPPDLFWYC], the binding result in assay [1] is on record as “binds”.

Consider CPCFLLGCC [phage displaying CPCFLLGCC (LLG-C4)], for which the binding result in assay [1] is “binds”.

Take CWSMELLGC [phage displaying CWSMELLGC]: the binding result in assay [1] was “binds”.

For CWHKDLLGC [phage displaying CWHKDLLGC], in assay [1], the binding result is “binds”.

The record behind these values is patent US20040259798A1 (KARYON CTT, published 2004).
